According to patent US20150322162A1:
Residue numbers refer to the chain shown, from its start.

B1: MH2-12 anti-c-Met/anti-HER2 bispecific antibody (bispecific antibody, part only; not given: nothing needed for binding, IgG2, not shown: another chain or arm of the molecule; small tags and cut ends)
heavy: EVQLVESGGGLVQPGGSLRLSCAASGFTFTDYYMSWVRQAPGKGLEWLGFIRNKANGYTTEYSASVKGRFTISRDNSKNTLYLQMNSLRAEDTAVYYCARDNWFAYWGQGTLVTVSSASTKGPSVFPLAPCSRSTSESTAALGCLVKDYFPEPVTVSWNSGALTSGVHTFPAVLQSSGLYSLSSVVTVPSSNFGTQTYTCNVDHKPSNTKVDKTVERKCCVECPPCPAPPVAGPSVFLFPPKPKDTLMISRTPEVTCVVVDVSHEDPEVQFNWYVDGVEVHNAKTKPREEQFNSTFRVVSVLTVVHQDWLNGKEYKCKVSNKGLPAPIEKTISKTKGQPREPQVYTLPPSREEMTKNQVSLTCLVKGFYPSDIAVEWESNGQPENNYKTTPPMLDSDGSFFLYSKLTVDKSRWQQGNVFSCSVMHEALHNHYTQKSLSLSPGKGGGGSGGGGSEVQLVQSGAEVKKPGESLKISCKGSGYSFTSYWIGWVRQMPGKGLEWMGIIYPGDSDTRYSPSFQGQVTISADKSISTAYLQWSSLKASDTAMYYCARHYYDSSGYSYFPDYWGQGTLVTVSS
VL: QTVVTQEPSFSVSPGGTVTLTCGLSSGSVSTSYYPSWYQQTPGQAPRTLIYSTNTRSSGVPDRFSGSILGNKAALTITGAQADDESDYYCVLYMGSGIWVFGGGTKLTVL
light: DIQMTQSPSSLSASVGDRVTITCKSSQSLLASGNQNNYLAWYQQKPGKAPKMLIIWASTRVSGVPSRFSGSGSGTDFTLTISSLQPEDFATYYCQQSYSRPYTFGQGTKVEIKRTVAAPSVFIFPPSDEQLKSGTASVVCLLNNFYPREAKVQWKVDNALQSGNSQESVTEQDSKDSTYSLSSTLTLSKADYEKHKVYACEVTHQGLSSPVTKSFNRGEC
B2: MH2-18 anti-c-Met/anti-HER2 bispecific antibody (bispecific antibody, part only; not given: nothing needed for binding, IgG2, not shown: another chain or arm of the molecule; small tags and cut ends)
heavy: EVQLVESGGGLVQPGGSLRLSCAASGFTFTDYYMSWVRQAPGKGLEWLGFIRNKANGYTTEYSASVKGRFTISRDNSKNTLYLQMNSLRAEDTAVYYCARDNWFAYWGQGTLVTVSSASTKGPSVFPLAPCSRSTSESTAALGCLVKDYFPEPVTVSWNSGALTSGVHTFPAVLQSSGLYSLSSVVTVPSSNFGTQTYTCNVDHKPSNTKVDKTVERKCCVECPPCPAPPVAGPSVFLFPPKPKDTLMISRTPEVTCVVVDVSHEDPEVQFNWYVDGVEVHNAKTKPREEQFNSTFRVVSVLTVVHQDWLNGKEYKCKVSNKGLPAPIEKTISKTKGQPREPQVYTLPPSREEMTKNQVSLTCLVKGFYPSDIAVEWESNGQPENNYKTTPPMLDSDGSFFLYSKLTVDKSRWQQGNVFSCSVMHEALHNHYTQKSLSLSPGKGGGGSGGGGSEVQLVQSGAEVKKPGESLKISCKGSGYSFTSYWIGWVRQMPGKGLEWMGIIYPGDSDTRYSPSFQGQVTISADKSISTAYLQWSSLKASDTAMYYCARLVVGANPPTYYFDYWGQGTLVTVSS
VL: B1 VL with T2A, A82T, W99S, V100L, L107V
light: B1 light

Legend:
[1] = molecular target: c-Met-Fc (#358-MT/CF, R&D Systems) (UniProt P08581); assay: SPR, Biacore T100; antibody captured by human Fab binder on CM5 chip, c-Met-Fc injected
[2] = molecular target: HER2-Fc (#1129-ER, R&D Systems) (UniProt P04626); assay: SPR, Biacore T100; antibody captured by human Fab binder on CM5 chip, HER2-Fc injected

UniProt P08581, sequence (P08581 25-932 limits assumed): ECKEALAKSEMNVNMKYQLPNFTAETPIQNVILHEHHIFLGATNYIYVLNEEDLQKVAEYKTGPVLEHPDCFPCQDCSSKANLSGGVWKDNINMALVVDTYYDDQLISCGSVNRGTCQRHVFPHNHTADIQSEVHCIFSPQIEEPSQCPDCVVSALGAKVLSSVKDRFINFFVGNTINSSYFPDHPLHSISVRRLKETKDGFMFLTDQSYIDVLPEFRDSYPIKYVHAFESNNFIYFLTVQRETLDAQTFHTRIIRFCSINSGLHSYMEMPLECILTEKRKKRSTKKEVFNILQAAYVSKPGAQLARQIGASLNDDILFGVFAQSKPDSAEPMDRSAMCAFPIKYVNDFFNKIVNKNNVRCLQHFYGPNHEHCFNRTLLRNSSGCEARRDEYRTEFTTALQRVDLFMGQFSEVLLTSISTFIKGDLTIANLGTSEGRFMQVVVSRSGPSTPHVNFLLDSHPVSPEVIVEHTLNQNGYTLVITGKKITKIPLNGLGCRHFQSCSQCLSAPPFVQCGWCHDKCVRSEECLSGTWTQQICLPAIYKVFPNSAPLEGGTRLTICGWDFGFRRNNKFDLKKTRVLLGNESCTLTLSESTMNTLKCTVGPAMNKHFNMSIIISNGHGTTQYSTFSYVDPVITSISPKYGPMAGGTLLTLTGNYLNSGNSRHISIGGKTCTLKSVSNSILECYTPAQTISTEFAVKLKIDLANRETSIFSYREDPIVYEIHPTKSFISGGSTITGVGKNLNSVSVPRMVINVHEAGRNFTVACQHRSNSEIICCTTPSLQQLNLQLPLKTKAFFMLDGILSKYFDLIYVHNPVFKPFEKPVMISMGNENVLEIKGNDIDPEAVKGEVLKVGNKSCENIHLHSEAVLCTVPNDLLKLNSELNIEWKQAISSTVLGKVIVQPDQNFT

Binder	Kd [1] [nM]	koff [1] [s⁻¹]	kon [1] [M⁻¹ s⁻¹]	Kd [2] [nM]	koff [2] [s⁻¹]	kon [2] [M⁻¹ s⁻¹]
B1	0.04	1.9e-05	500000	< 0.01	< 5.8e-05	200000
B2	0.03	1.5e-05	590000	< 0.01	< 1.3e-05	820000
